Results taken from patent US20150087577A1 (POLYPHOR, published 2015).
Bridges are numbered along the chain shown (N, C = ends). [ ]: non-standard residue; d: D form. 2Nal = N[C@@H](Cc1ccc2ccccc2c1)C(=O)O; Cit = NC(=O)NCCC[C@H](N)C(=O)O; Dab = NCC[C@H](N)C(=O)O

B1: Example 108 (peptide)
peptide: cyclo(YR[Cit]CRG[dP]RRWCYQK[dP]P)
modifications: disulfide 4-11
SMILES: N=C(N)NCCC[C@@H]1NC(=O)[C@@H]2CSSC[C@H](NC(=O)[C@H](Cc3c[nH]c4ccccc34)NC(=O)[C@H](CCCNC(=N)N)NC(=O)[C@H](CCCNC(=N)N)NC(=O)[C@H]3CCCN3C(=O)CNC1=O)C(=O)N[C@@H](Cc1ccc(O)cc1)C(=O)N[C@@H](CCC(N)=O)C(=O)N[C@@H](CCCCN)C(=O)N1CCC[C@@H]1C(=O)N1CCC[C@H]1C(=O)N[C@@H](Cc1ccc(O)cc1)C(=O)N[C@@H](CCCNC(=N)N)C(=O)N[C@@H](CCCNC(N)=O)C(=O)N2
B2: Example 21 (peptide)
peptide: cyclo(YR[Cit]FRV[dP]RR[2Nal]VY[Cit]K[dP]P)
SMILES: CC(C)[C@@H]1NC(=O)[C@H](Cc2ccc3ccccc3c2)NC(=O)[C@H](CCCNC(=N)N)NC(=O)[C@H](CCCNC(=N)N)NC(=O)[C@H]2CCCN2C(=O)[C@H](C(C)C)NC(=O)[C@H](CCCNC(=N)N)NC(=O)[C@H](Cc2ccccc2)NC(=O)[C@H](CCCNC(N)=O)NC(=O)[C@H](CCCNC(=N)N)NC(=O)[C@H](Cc2ccc(O)cc2)NC(=O)[C@@H]2CCCN2C(=O)[C@H]2CCCN2C(=O)[C@H](CCCCN)NC(=O)[C@H](CCCNC(N)=O)NC(=O)[C@H](Cc2ccc(O)cc2)NC1=O
B3: Example 107 (peptide)
peptide: cyclo(FR[Cit]CRG[dP]RRWCY[Cit]K[dP]P)
modifications: disulfide 4-11
SMILES: N=C(N)NCCC[C@@H]1NC(=O)[C@@H]2CSSC[C@H](NC(=O)[C@H](Cc3c[nH]c4ccccc34)NC(=O)[C@H](CCCNC(=N)N)NC(=O)[C@H](CCCNC(=N)N)NC(=O)[C@H]3CCCN3C(=O)CNC1=O)C(=O)N[C@@H](Cc1ccc(O)cc1)C(=O)N[C@@H](CCCNC(N)=O)C(=O)N[C@@H](CCCCN)C(=O)N1CCC[C@@H]1C(=O)N1CCC[C@H]1C(=O)N[C@@H](Cc1ccccc1)C(=O)N[C@@H](CCCNC(=N)N)C(=O)N[C@@H](CCCNC(N)=O)C(=O)N2
B4: Example 112 (peptide)
peptide: cyclo(YR[Cit]CRG[dP]RRYCY[Cit]K[dP]P)
modifications: disulfide 4-11
SMILES: N=C(N)NCCC[C@@H]1NC(=O)[C@@H]2CSSC[C@H](NC(=O)[C@H](Cc3ccc(O)cc3)NC(=O)[C@H](CCCNC(=N)N)NC(=O)[C@H](CCCNC(=N)N)NC(=O)[C@H]3CCCN3C(=O)CNC1=O)C(=O)N[C@@H](Cc1ccc(O)cc1)C(=O)N[C@@H](CCCNC(N)=O)C(=O)N[C@@H](CCCCN)C(=O)N1CCC[C@@H]1C(=O)N1CCC[C@H]1C(=O)N[C@@H](Cc1ccc(O)cc1)C(=O)N[C@@H](CCCNC(=N)N)C(=O)N[C@@H](CCCNC(N)=O)C(=O)N2
B5: Example 106 (peptide)
peptide: cyclo(YK[Cit]CRG[dP]RRWCY[Cit]K[dP]P)
modifications: disulfide 4-11
SMILES: N=C(N)NCCC[C@@H]1NC(=O)[C@@H]2CSSC[C@H](NC(=O)[C@H](Cc3c[nH]c4ccccc34)NC(=O)[C@H](CCCNC(=N)N)NC(=O)[C@H](CCCNC(=N)N)NC(=O)[C@H]3CCCN3C(=O)CNC1=O)C(=O)N[C@@H](Cc1ccc(O)cc1)C(=O)N[C@@H](CCCNC(N)=O)C(=O)N[C@@H](CCCCN)C(=O)N1CCC[C@@H]1C(=O)N1CCC[C@H]1C(=O)N[C@@H](Cc1ccc(O)cc1)C(=O)N[C@@H](CCCCN)C(=O)N[C@@H](CCCNC(N)=O)C(=O)N2
B6: Example 105 (peptide)
peptide: cyclo(YH[Cit]CRG[dP]RRWCY[Cit]K[dP]P)
modifications: disulfide 4-11
SMILES: N=C(N)NCCC[C@@H]1NC(=O)[C@@H]2CSSC[C@H](NC(=O)[C@H](Cc3c[nH]c4ccccc34)NC(=O)[C@H](CCCNC(=N)N)NC(=O)[C@H](CCCNC(=N)N)NC(=O)[C@H]3CCCN3C(=O)CNC1=O)C(=O)N[C@@H](Cc1ccc(O)cc1)C(=O)N[C@@H](CCCNC(N)=O)C(=O)N[C@@H](CCCCN)C(=O)N1CCC[C@@H]1C(=O)N1CCC[C@H]1C(=O)N[C@@H](Cc1ccc(O)cc1)C(=O)N[C@@H](Cc1c[nH]cn1)C(=O)N[C@@H](CCCNC(N)=O)C(=O)N2
B7: Example 104 (peptide)
peptide: cyclo(YRTCRG[dP][Dab]R[2Nal]CYQK[dP]P)
modifications: disulfide 4-11
SMILES: C[C@@H](O)[C@@H]1NC(=O)[C@H](CCCNC(=N)N)NC(=O)[C@H](Cc2ccc(O)cc2)NC(=O)[C@@H]2CCCN2C(=O)[C@H]2CCCN2C(=O)[C@H](CCCCN)NC(=O)[C@H](CCC(N)=O)NC(=O)[C@H](Cc2ccc(O)cc2)NC(=O)[C@@H]2CSSC[C@H](NC1=O)C(=O)N[C@@H](CCCNC(=N)N)C(=O)NCC(=O)N1CCC[C@@H]1C(=O)N[C@@H](CCN)C(=O)N[C@@H](CCCNC(=N)N)C(=O)N[C@@H](Cc1ccc3ccccc3c1)C(=O)N2
B8: Example 111 (peptide)
peptide: cyclo(YR[Cit]C[Dab]G[dP]RRWCYQK[dP]P)
modifications: disulfide 4-11
SMILES: N=C(N)NCCC[C@@H]1NC(=O)[C@H](CCCNC(=N)N)NC(=O)[C@H]2CCCN2C(=O)CNC(=O)[C@H](CCN)NC(=O)[C@@H]2CSSC[C@H](NC(=O)[C@H](Cc3c[nH]c4ccccc34)NC1=O)C(=O)N[C@@H](Cc1ccc(O)cc1)C(=O)N[C@@H](CCC(N)=O)C(=O)N[C@@H](CCCCN)C(=O)N1CCC[C@@H]1C(=O)N1CCC[C@H]1C(=O)N[C@@H](Cc1ccc(O)cc1)C(=O)N[C@@H](CCCNC(=N)N)C(=O)N[C@@H](CCCNC(N)=O)C(=O)N2
B9: Example 110 (peptide)
peptide: cyclo(YRTCRG[dP][Dab]RWCYQK[dP]P)
modifications: disulfide 4-11
SMILES: C[C@@H](O)[C@@H]1NC(=O)[C@H](CCCNC(=N)N)NC(=O)[C@H](Cc2ccc(O)cc2)NC(=O)[C@@H]2CCCN2C(=O)[C@H]2CCCN2C(=O)[C@H](CCCCN)NC(=O)[C@H](CCC(N)=O)NC(=O)[C@H](Cc2ccc(O)cc2)NC(=O)[C@@H]2CSSC[C@H](NC1=O)C(=O)N[C@@H](CCCNC(=N)N)C(=O)NCC(=O)N1CCC[C@@H]1C(=O)N[C@@H](CCN)C(=O)N[C@@H](CCCNC(=N)N)C(=O)N[C@@H](Cc1c[nH]c3ccccc13)C(=O)N2
B10: Example 109 (peptide)
peptide: cyclo(YR[Cit]CRG[dP][Dab]RWCYQK[dP]P)
modifications: disulfide 4-11
SMILES: N=C(N)NCCC[C@@H]1NC(=O)[C@@H]2CSSC[C@H](NC(=O)[C@H](Cc3c[nH]c4ccccc34)NC(=O)[C@H](CCCNC(=N)N)NC(=O)[C@H](CCN)NC(=O)[C@H]3CCCN3C(=O)CNC1=O)C(=O)N[C@@H](Cc1ccc(O)cc1)C(=O)N[C@@H](CCC(N)=O)C(=O)N[C@@H](CCCCN)C(=O)N1CCC[C@@H]1C(=O)N1CCC[C@H]1C(=O)N[C@@H](Cc1ccc(O)cc1)C(=O)N[C@@H](CCCNC(=N)N)C(=O)N[C@@H](CCCNC(N)=O)C(=O)N2

Each binder was assayed against human CXCR4 (human, UniProt P61073 1-352) (assay: cell-based or functional assay).
Chain of human CXCR4 (P61073 whole entry): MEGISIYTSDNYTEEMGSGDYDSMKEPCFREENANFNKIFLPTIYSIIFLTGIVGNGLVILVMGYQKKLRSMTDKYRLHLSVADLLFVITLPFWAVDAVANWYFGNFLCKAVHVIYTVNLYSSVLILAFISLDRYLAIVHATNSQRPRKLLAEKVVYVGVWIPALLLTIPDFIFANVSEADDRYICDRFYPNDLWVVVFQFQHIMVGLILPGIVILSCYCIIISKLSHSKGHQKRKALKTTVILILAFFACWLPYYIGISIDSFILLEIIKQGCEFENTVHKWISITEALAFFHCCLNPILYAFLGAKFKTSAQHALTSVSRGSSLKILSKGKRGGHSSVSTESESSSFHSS

| Binder | IC50 (nM) Ca2+ assay (method 2) [nM] | IC50 (nM) Ca2+ assay (method 1) [nM] |
| --- | --- | --- |
| B1 | 4.6 |  |
| B2 |  | 550 |
| B3 | 3.8 |  |
| B4 | 7.8 |  |
| B5 | 3.1 |  |
| B6 | 0.62 |  |
| B7 | 7.4 |  |
| B8 | 1.6 |  |
| B9 | 1.7 |  |
| B10 | 3 |  |
